Results on six molecules are retold here after US20190062398A1 (published 2019).

Holding throughout (test): cytokine release
Experiment [1] deals with T1, Human papillomavirus type 16 E6 protein peptide on HLA-A*02:01 (human).
T1 peptide: TIHDIILECV

Experiment [2] addresses T2, Human papillomavirus type 16 E7 protein peptide on HLA-A*02:01 (human).
T2 peptide: TLGIVCPI

Experiment [3] deals with T3, Human papillomavirus type 16 E5 protein peptide on HLA-A*02:01 (human).
T3 peptide: YIIFVYIPL

B1: T4 (TCR, V domains shown)
Valpha: KQEVTQIPAALSVPEGENLVLNCSFTDSAIYNLQWFRQDPGKGLTSLLLIQSSQREQTSGRLNASLDKSSGRSTLYIAASQPGDSATYLCAVRETSGSRLTFGEGTQLTVNP
Vbeta: DVKVTQSSRYLVKRTGEKVFLECVQDMDHENMFWYRQDPGLGLRLIYFSYDVKMKEKGDIPEGYSVSREKKERFSLILESASTNQTSMYLCASSFWGRSTDTQYFGPGTRLTVL
For B1, the binding result in experiment [1] is on record as “recognises”.

B2: T5a (TCR, V domains shown)
Valpha: SQQGEEDPQALSIQEGENATMNCSYKTSINNLQWYRQNSGRGLVHLILIRSNEREKHSGRLRVTLDTSKKSSSLLITASRAADTASYFCATVSTDSWGKLQFGAGTQVVVTP
Vbeta: DAGITQSPRHKVTETGTPVTLRCHQTENHRYMYWYRQDPGHGLRLIHYSYGVKDTDKGEVSDGYSVSRSKTEDFLLTLESATSSQTSVYFCAISDSNGINIQYFGAGTRLSVL
In the case of B2, in experiment [1], the binding result is listed as “recognises”.

B3: T7 (TCR, V domains shown)
Valpha: QQPVQSPQAVILREGEDAVINCSSSKALYSVHWYRQKHGEAPVFLMILLKGGEQKGHEKISASFNEKKQQSSLYLTASQLSYSGTYFCGTGTDSWGKLQFGAGTQVVVTP
Vbeta: DAGVIQSPRHEVTEMGQEVTLRCKPISGHDYLFWYRQTMMRGLELLIYFNNNVPIDDSGMPEDRFSAKMPNASFSTLKIQPSEPRDSAVYFCASSPGLAGGEQFFGPGTRLTVL
As to B3, the binding result in experiment [2] is given as “recognises”.

B4: T2 (TCR, V domains shown)
Valpha: QKEVEQNSGPLSVPEGAIASLNCTYSDRGSQSFFWYRQYSGKSPELIMSIYSNGDKEDGRFTAQLNKASQYVSLLIRDSQPSDSATYLCAVNVDFNKFYFGSGTKLNVKP
Vbeta: DTEVTQTPKHLVMGMTNKKSLKCEQHMGHRAMYWYKQKAKKPPELMFVYSYEKLSINESVPSRFSPECPNSSLLNLHLHALQPEDSALYLCASSQDWNNEQFFGPGTRLTVL
Consider B4, for which the binding result in experiment [3] was “recognises”.

B5: T3 (TCR, V domains shown)
Valpha: EDQVTQSPEALRLQEGESSSLNCSYTVSGLRGLFWYRQDPGKGPEFLFTLYSAGEEKEKERLKATLTKKESFLHITAPKPEDSATYLCAVQANRGSTLGRLYFGRGTQLTVWP
Vbeta: DVKVTQSSRYLVKRTGEKVFLECVQDMDHENMFWYRQDPGLGLRLIYFSYDVKMKEKGDIPEGYSVSREKKERFSLILESASTNQTSMYLCASSLWGRLAKNIQYFGAGTRLSVL
Consider B5, for which the binding result in experiment [1] is on record as “recognises”.

B6: T5b (TCR, V domains shown)
Valpha: SQQGEEDPQALSIQEGENATMNCSYKTSINNLQWYRQNSGRGLVHLILIRSNEREKHSGRLRVTLDTSKKSSSLLITASRAADTASYFCATVSTDSWGKLQFGAGTQVVVTP
Vbeta: DVKVTQSSRYLVKRTGEKVFLECVQDMDHENMFWYRQDPGLGLRLIYFSYDVKMKEKGDIPEGYSVSREKKERFSLILESASTNQTSMYLCASSLWGRAGKDTQYFGPGTRLTVL
As to B6, in experiment [1], the binding result was “recognises”.
